The assay has as its target VACV B18. Nature of the assay: SPR. Background: Surface plasmon resonance follows binding to a sensor surface in real time, without labels.

The values below come from paper PMC6303335.

human IFNα-2b had a koff of 0.000225 s⁻¹.

The koff is the rate constant with which the complex falls apart. High values mean fast dissociation, low ones slow dissociation.
